Data taken from patent US20180155451A1 (published 2018).
Where two headings read alike, the source gives them in different places.

T1: FcγRIIb (human, UniProt P31994 43-217)
T1 construct: extracellular domain; also called FcgRIIb; 2b; not shown: His tag at the C terminus
T1 sequence (looked up): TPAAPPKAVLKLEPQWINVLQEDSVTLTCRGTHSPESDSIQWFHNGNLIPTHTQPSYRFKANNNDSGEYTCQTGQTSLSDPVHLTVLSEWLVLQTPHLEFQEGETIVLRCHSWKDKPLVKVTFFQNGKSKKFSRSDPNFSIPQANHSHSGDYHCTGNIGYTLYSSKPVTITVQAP

T2: FcγRIIa H (human, UniProt P12318 34-217)
T2 construct: extracellular domain; Soluble His-tagged extracellular domain expressed in FreeStyle293 cells; also called FcγRIIa type H; FcgRIIa H; not shown: His tag attached to the C terminus
T2 sequence (looked up): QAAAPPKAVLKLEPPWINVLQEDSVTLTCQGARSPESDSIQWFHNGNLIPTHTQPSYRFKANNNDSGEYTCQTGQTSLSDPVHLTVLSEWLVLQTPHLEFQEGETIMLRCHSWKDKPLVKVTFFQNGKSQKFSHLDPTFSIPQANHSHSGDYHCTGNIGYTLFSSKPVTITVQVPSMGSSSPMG

T3: FcγRIIb (human, UniProt P31994 43-217)
T3 construct: extracellular domain; Soluble His-tagged extracellular domain expressed in FreeStyle293 cells; also called FcgRIIb; 2b; not shown: His tag attached to the C terminus
T3 sequence (looked up): T1 sequence (looked up)

B1: GpH7-A5/GpH7-B3 variant I332_09D/GpL16-k0 (antibody, human IgG1, kappa)
heavy 1: not shown
heavy 2: not shown
light: DIVMTQSPLSLPVTPGEPASISCQASESLVHSNRNTYLHWYLQKPGQSPQLLIYKVSNRFSGVPDRFSGSGSGTDFTLKISRVEAEDVGVYYCSQNTHVPPTFGQGTKVEIERTVAAPSVFIFPPSDEQLKSGTASVVCLLNNFYPREAKVQWKVDNALQSGNSQESVTEQDSKDSTYSLSSTLTLSKADYEKHKVYACEVTHQGLSSPVTKSFNRGEC
notes: heterodimerized IgG1; alteration in the GpH7-B3 H chain only; also called He Ab
B2: GpH7-A5/GpH7-B3 variant N325_01G/GpL16-k0 (antibody, human IgG1, kappa)
heavy 1: not shown
heavy 2: not shown
light: B1 light
notes: Heterodimerized anti-glypican-3 IgG1; mutation in the GpH7-B3 H chain only; also called He Ab
B3: GpH7-A5/GpH7-B3 variant L328_20W/GpL16-k0 (antibody, human IgG1, kappa)
heavy 1: not shown
heavy 2: not shown
light: B1 light
notes: as for B1
B4: GpH7-A5/GpH7-B3 variant N325_08L/GpL16-k0 (antibody, human IgG1, kappa)
heavy 1: not shown
heavy 2: not shown
light: B1 light
notes: as for B1
B5: GpH7-A5/GpH7-B3 variant P331_03V/GpL16-k0 (antibody, human IgG1, kappa)
heavy 1: not shown
heavy 2: not shown
light: B1 light
notes: as for B1
B6: GpH7-A5/GpH7-B3 variant K326_09D/GpL16-k0 (antibody, human IgG1, kappa)
heavy 1: not shown
heavy 2: not shown
light: B1 light
notes: as for B2
B7: GpH7-A5/GpH7-B3 variant K326_10E/GpL16-k0 (antibody, human IgG1, kappa)
heavy 1: not shown
heavy 2: not shown
light: B1 light
notes: as for B2
B8: GpH7-A5/GpH7-B3 variant L328_06M/GpL16-k0 (antibody, human IgG1, kappa)
heavy 1: not shown
heavy 2: not shown
light: B1 light
notes: as for B1
B9: GpH7-A5/GpH7-B3 variant L328_02A/GpL16-k0 (antibody, human IgG1, kappa)
heavy 1: not shown
heavy 2: not shown
light: B1 light
notes: as for B1
B10: GpH7-A5/GpH7-B3 variant L328_14T/GpL16-k0 (antibody, human IgG1, kappa)
heavy 1: not shown
heavy 2: not shown
light: B1 light
notes: as for B1
B11: GpH7-A5/GpH7-B3 variant K326_14T/GpL16-k0 (antibody, human IgG1, kappa)
heavy 1: not shown
heavy 2: not shown
light: B1 light
notes: as for B2
B12: GpH7-A5/GpH7-B3 variant L328_04F/GpL16-k0 (antibody, human IgG1, kappa)
heavy 1: not shown
heavy 2: not shown
light: B1 light
notes: as for B1
B13: GpH7-A5/GpH7-B3 variant S337_15Y/GpL16-k0 (antibody, human IgG1, kappa)
heavy 1: not shown
heavy 2: not shown
light: B1 light
notes: as for B2
B14: GpH7-A5/GpH7-B3 variant N325_06M/GpL16-k0 (antibody, human IgG1, kappa)
heavy 1: not shown
heavy 2: not shown
light: B1 light
notes: as for B1
B15: GpH7-A5/GpH7-B3 variant S337_18N/GpL16-k0 (antibody, human IgG1, kappa)
heavy 1: not shown
heavy 2: not shown
light: B1 light
notes: as for B2

Legend:
FcγRIa [1] = biological target: T4, FcγRIa (human, UniProt P12314 16-292); assay: SPR (Biacore); He/Con_1a (FcγRIa) divided by He/Con_2b (FcγRIIb)
T4 construct: extracellular domain; also called FcgRI; 1a; not shown: His tag at the C terminus

FcγRIIb [2] = biological target: T1, FcγRIIb; assay: SPR (Biacore), antibody captured, FcγR as analyte; binding as % of GpH7-A5/GpH7-B3/GpL16-k0
FcγRIa [3] = biological target: T4, FcγRIa; assay: as above
FcγRIIa H [4] = biological target: T2, FcγRIIa H; assay: SPR (Biacore); He/Con_2aH divided by He/Con_2b (FcγRIIb) of the same antibody
Protocol: (§1) The heterodimerized antibodies He Abs in which one of the H chains was introduced with an alteration were assayed for their binding activities to each activating FcγR and inhibitory FcγR according to the method described in Example 4. […] The activating FcγRs in FIGS. 26, 27, 28, and 29 are FcγRIa, FcγRIIa (R), FcγRIIa (H), and FcγRIIIa, respectively.
(§2) Analysis of interaction between objective antibody and the FcγR was carried out using Biacore T100 (GE Healthcare). HBS-EP+ (GE Healthcare) was used as the running buffer, and the measurement temperature was set to 25° C. Chips produced by immobilizing the antigen peptide by the amine coupling method to a Series S Sencor Chip CM5 (GE Healthcare), or alternatively, chips produced by allowing preliminarily biotinylated antigen peptides to interact with and immobilize onto a Series S Sensor Chip SA (certified) (GE Healthcare) were used. Antibodies of interest were captured onto an antigen peptide-immobilized chip, and allowed to interact to each FcγR diluted with running buffer. To regenerate and repeatedly use the chip, the antibodies captured on the chip were washed off by reacting 10 mM glycine-HCl, pH 1.5.

FcγRIIa H [5] = biological target: T2, FcγRIIa H; assay: SPR (Biacore), captured antibody, FcγR analyte; relative to GpH7-A5/GpH7-B3/GpL16-k0 = 100
Protocol: as §1, §2

FcγRIIb [6] = biological target: T3, FcγRIIb; assay: as above
Protocol: as §1, §2

FcγRIIb [7] = biological target: T1, FcγRIIb; assay: SPR (Biacore), antibody captured, FcγR as analyte; binding as % of GpH7-A5/GpH7-B3/GpL16-k0; remark: listed apart in the source
FcγRIa [8] = biological target: T4, FcγRIa; assay: as above; remark: listed apart in the source

T4 sequence (P12314 16-292): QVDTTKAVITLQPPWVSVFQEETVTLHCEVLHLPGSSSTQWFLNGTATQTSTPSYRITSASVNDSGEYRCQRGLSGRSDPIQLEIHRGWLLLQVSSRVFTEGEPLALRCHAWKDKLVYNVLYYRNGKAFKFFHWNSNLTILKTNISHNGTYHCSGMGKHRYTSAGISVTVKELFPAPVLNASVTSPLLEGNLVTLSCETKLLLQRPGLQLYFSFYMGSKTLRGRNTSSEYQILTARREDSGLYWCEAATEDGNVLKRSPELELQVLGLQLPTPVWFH

Binder	Ia/IIb He_1a/2b (FcγRIa [1]) [ratio]	He/Con_2b (FcγRIIb [2])	He/Con_1a (FcγRIa [3])	He_2aH/2b (FcγRIIa H [4]) [ratio]	He/Con_2aH (FcγRIIa H [5])	He/Con_2b (FcγRIIb [6])	He/Con_2b (FcγRIIb [7])	He/Con_1a (FcγRIa [8])
B1	0.64	147 % of control	93.4 % of control	–	–	–	–	–
B2	–	–	–	0.56	56.8 relative (control = 100)	101 relative (control = 100)	–	–
B3	0.44	235 % of control	103 % of control	–	–	–	–	–
B4	0.5	197 % of control	97.5 % of control	–	–	–	–	–
B5	0.78	119 % of control	92 % of control	–	–	–	119 % of control	92 % of control
B6	–	–	–	0.57	110 relative (control = 100)	193 relative (control = 100)	–	–
B7	–	–	–	0.51	102 relative (control = 100)	200 relative (control = 100)	–	–
B8	0.7	142 % of control	98.7 % of control	–	–	–	142 % of control	98.7 % of control
B9	0.68	144 % of control	98.5 % of control	–	–	–	144 % of control	98.5 % of control
B10	0.71	141 % of control	100 % of control	–	–	–	–	–
B11	–	–	–	0.77	114 relative (control = 100)	150 relative (control = 100)	–	–
B12	0.45	219 % of control	97.9 % of control	–	–	–	219 % of control	97.9 % of control
B13	–	–	–	–	99.4 relative (control = 100)	100 relative (control = 100)	–	–
B14	0.45	217 % of control	97.6 % of control	–	–	–	–	–
B15	–	–	–	–	99.8 relative (control = 100)	103 relative (control = 100)	–	–
